Data: patent publication US20220356246A1 (published 2022)

Biological target: Human ROR1-ECD (human, UniProt Q01973 30-406)
Assay: BLI (Fortebio)

Sequence of Human ROR1-ECD (Q01973 30-406): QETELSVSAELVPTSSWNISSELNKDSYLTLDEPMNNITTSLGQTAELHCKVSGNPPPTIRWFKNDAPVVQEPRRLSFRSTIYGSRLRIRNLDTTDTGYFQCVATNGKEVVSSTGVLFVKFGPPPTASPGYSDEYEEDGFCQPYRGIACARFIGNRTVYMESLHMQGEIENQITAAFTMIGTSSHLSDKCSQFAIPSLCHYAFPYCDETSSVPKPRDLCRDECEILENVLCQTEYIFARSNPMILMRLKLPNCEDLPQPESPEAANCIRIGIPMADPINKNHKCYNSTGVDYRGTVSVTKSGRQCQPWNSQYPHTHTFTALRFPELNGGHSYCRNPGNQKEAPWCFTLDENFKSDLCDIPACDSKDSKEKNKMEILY

Row | Kd [nM] | Binder
1 | 4.48 | anti-ROR1 antibody clone G3 (antibody, V domains shown) VH: QVQLQQWGAGLLKPSETLSLTCAVYGGSFSGYYWSWIRQPPGKGLEWIGEINHSGSTSYNPSLKSRVTISVDTSKNQFSLKLSSVTAADTAVYYCARGHSSGWYRRYFDLWGRGTLVTVSS VL: EIVLTQSPATLSLSPGERATLSCRASQSVSSYLAWYQQKPGQAPRLLIYDASNRATGIPAKFSGSGSGTDFTLTISSLEPEDFAVYYCQQRSNWPPTFGGGTKVEIK
2 | 3.25 | anti-ROR1 antibody clone C3 (antibody, V domains shown) VH: QVQLQESGPGLVKPSETLSLTCTVSGGSISSYYWSWIRQLPGKGLEWIGYMHYSGSTSYNPSLKGRLTISVDTSTNQFSLKLGSVTAADTAVYYCARYYYHDSSGYYSYFDYWGQGTLVTVSS VL: EIVLTQSPGTLSLSPGERATLSCRASQSVSSYLAWYQQKAGQAPRLLIYDASNRASGIPARFSGSGSGTDFTLTISSLEPEDFAVYYCQQRSNWPPTFGGGTKVEIK
3 | 43.7 | anti-ROR1 antibody clone G6 (antibody, V domains shown) VH: EVQLVESGGGVVQPGGSLRLSCAASGFTFDDYAMHWVRQAPGKGLEWVSLISGDGGSTYYADSVKGRFTISRDNAKNSLYLQMNSLRAEDTAVYYCARDNWNDVYYYYGMDVWGQGTTVTVSS VL: DIQLTQSPSSLSASIGDTVTISCQASRDISDYLNWYQHKPGKAPKLLIYDASNLATGVPSRFSGSGSGTDFTLTIKSLQPEDVATYFCQQDDLLPLTFGGGTKVDIK
